Measurements published in patent publication US20200157232A1 (TENEOONE, published 2020).

T1: human B-Cell Maturation Antigen (BCMA) (human, UniProt Q02223 1-54, limits assumed)
T1 construct: also called CD269; TNFRSF17
T1 sequence (looked up): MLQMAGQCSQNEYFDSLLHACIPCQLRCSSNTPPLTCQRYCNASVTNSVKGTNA

B1: anti-BCMA heavy chain-only antibody 308902, bivalent form (antibody, V domains shown)
VH: EVQLLESGGGLVQPGGSLRLSCAASGFTVSSYGMSWVRQAPGKGPEWVSGIRGSDGSTYYADSVKGRFTISRDNSKNTLYLQMNSLRAEDTAVYYCAKQGENDGPFDHRGQGTLVTVSS
notes: Heavy chain-only antibody with no light chain; UniAbs were expressed in HEK cells with CH1 deleted; also called UniAb 308902 (bivalent)
B2: anti-BCMA heavy chain-only antibody 308902, monovalent form (antibody, V domains shown)
VH: B1 VH
notes: Heavy chain-only antibody with no light chain; UniAbs were expressed in HEK cells with CH1 deleted; also called UniAb 308902 (monovalent)

Assays:
[1] = target: T1, human B-Cell Maturation Antigen (BCMA); assay: BioLayer Interferometry, Octet QK384, kinetics mode; bivalent form
Description: (§1) As used herein, the “Kd” or “Kd value” refers to a dissociation constant determined by BioLayer Interferometry, using an Octet QK384 instrument (Fortebio Inc., Menlo Park, Calif.) in kinetics mode. For example, anti-mouse Fc sensors are loaded with mouse-Fc fused antigen and then dipped into antibody-containing wells to measure concentration dependent association rates (kon). Antibody dissociation rates (koff) are measured in the final step, where the sensors are dipped into wells containing buffer only. The Kd is the ratio of koff/kon.

HSA = target: T2, HSA (Homo sapiens); assay: ELISA on human serum albumin
T2 construct: off-target control antigen; also called human serum albumin

IgG1k = target: T3, IgG1k; assay: ELISA, UniAb captures human IgG1 kappa, detection goat anti-human kappa HRP
T3 construct: off-target control antigen; also called human IgG1 kappa protein

BVP = target: T4, BVP; assay: ELISA on baculovirus protein extract (BVP)
T4 construct: polyreactivity control; a protein mixture; also called Baculo Virus Protein Extract; baculovirus protein
Description: Off-target binding to Baculo Virus Protein Extract (BVP) was conducted by ELISA as above, with the modification of using 1×PBS and 1% dry milk powder for the diluent. BVP extract was obtained from INSERM (Nantes, France).

[2] = target: T1, human B-Cell Maturation Antigen (BCMA); assay: BioLayer Interferometry, Octet QK384, kinetics mode
Description: as §1

Lambda = target: T5, Lambda; assay: ELISA on human lambda protein
T5 construct: off-target control antigen; also called human lambda protein

[3] = target: T1, human B-Cell Maturation Antigen (BCMA); assay: ELISA, supernatant UniAb on human BCMA ECD (Abcam ab50089), detection goat anti-human IgG HRP
Description: Supernatants of 6 antibodies were tested for binding in a standard ELISA assay to a human BCMA. Binding to recombinant BCMA protein was determined by ELISA using human BCMA ECD obtained from Abcam (ab50089). The BCMA ECD protein was used at a concentration of 2 μg/mL to capture UniAbs at 50 ng/mL. […] All antibodies were diluted in 1×TBS with 0.05% Tween-20 and 1% dry milk powder.

[4] = target: T1, human B-Cell Maturation Antigen (BCMA); assay: BioLayer Interferometry, Octet QK384, kinetics mode; monovalent form
Description: as §1

T2 sequence (P02768 25-609): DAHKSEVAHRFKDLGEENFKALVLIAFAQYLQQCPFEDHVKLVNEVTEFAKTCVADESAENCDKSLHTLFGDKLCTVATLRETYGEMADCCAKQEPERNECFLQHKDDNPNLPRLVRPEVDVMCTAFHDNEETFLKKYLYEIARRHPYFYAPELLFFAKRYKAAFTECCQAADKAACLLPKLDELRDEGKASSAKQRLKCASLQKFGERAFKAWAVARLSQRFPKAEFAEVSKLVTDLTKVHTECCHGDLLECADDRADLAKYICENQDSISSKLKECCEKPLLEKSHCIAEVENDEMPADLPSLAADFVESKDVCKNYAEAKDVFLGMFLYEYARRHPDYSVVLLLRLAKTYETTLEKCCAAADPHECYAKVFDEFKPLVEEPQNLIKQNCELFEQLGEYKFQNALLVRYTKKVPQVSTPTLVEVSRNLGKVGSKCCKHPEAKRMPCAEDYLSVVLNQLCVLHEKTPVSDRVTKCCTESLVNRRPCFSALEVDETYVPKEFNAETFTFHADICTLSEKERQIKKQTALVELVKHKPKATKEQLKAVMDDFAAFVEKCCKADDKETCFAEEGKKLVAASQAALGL

Binder	Kd [1] [nM]	ELISA Binding Ratio (expt signal / dilutent only) (HSA)	ELISA Binding Ratio (expt signal / dilutent only) (IgG1k)	ELISA Binding Ratio (expt signal / dilutent only), BVPscore (BVP)	koff [2] [s⁻¹]	kon [2] [M⁻¹ s⁻¹]	ELISA Binding Ratio (expt signal / dilutent only) (Lambda)	ELISA Binding Ratio (expt signal / dilutent only) [3]	Kd [4] [nM]
B1	0.053	0.8	1.1	1.1	0.000177	3.38e+06	1.1	868	
B2					0.000719	923000			0.779
